The text below walks through data of patent publication EP3636320A1 (Numab Therapeutics AG, dated 2020).

Residue numbers refer to the chain shown, from its start.

This test deals with human CD137 expressed on Jurkat cells (human, UniProt Q07011 24-255). The test can be described thus: cell-based or functional assay.

B1: PRO1480 (other)
chain: DIQMTQSPASLSASVGDRVTITCQASQSIGTYLAWYQQKPGKPPKLLIYRAFILASGVPSRFSGSGSGTDFTLTISSLQPEDFATYYCQSNFYSDSTTIGPNAFGTGTKVTVLGGGGGSEVQLVESGGGLVQPGGSLRLSCAASGFSFSANYYPCWVRQAPGKGLEWIGCIYGGSSDITYDANWTKGRFTISRDNSKNTVYLQMNSLRAEDTAVYYCARSAWYSGWGGDLWGQGTLVTVSSGGGGSGGGGSGGGGSGGGGSIQMTQSPSSLSASVGDRVTITCQASQSISNRLAWYQQKPGKAPKLLIYSASTLASGVPSRFSGSGSGTDFTLTISSLQPEDFATYYCQSTYYGNDGNAFGTGTKVTVLGGGGGSEVQLVESGGGLVQPGGSLRLSCAASGFSFNSDYWIYWVRQAPGKGLEWIASIYGGSSGNTQYASWAQGRFTISRDNSKNTVYLQMNSLRAEDTAVYFCARGYVDYGGATDLWGQGTLVTVSSGGGGSGGGGSIQMTQSPSSLSASVGDRVTITCQSSESVYSNNQLSWYQQKPGQPPKLLIYDASDLASGVPSRFSGSGSGTDFTLTISSLQPEDFATYYCAGGFSSSSDTAFGGGTKLTVLGGGGGSGGGGSGGGGSGGGGSEVQLVESGGGLVQPGGSLRLSCAASGFSLSSNAMGWVRQAPGKGLEYIGIISVGGFTYYASWAKGRFTISRDNSKNTVYLQMNSLRAEDTATYFCARDRHGGDSSGAFYLWGQGTLVTVSS
Consider B1, for which the “IC50 (ng/ml), activation of NF-kB reporter gene, HCC827 +IFNg, 6 h, with HSA” value worked out at 6.44 ng/mL and the “IC50 (ng/ml), activation of NF-kB reporter gene, HCC827 +IFNg, 24 h, with HSA” value turned out to be 4.67 ng/mL.

B2: PRO1481 (other)
chain: B1 chain with V121S, Y216F, Q233P, I262F, M264L, A303P
As to B2, the “IC50 (ng/ml), activation of NF-kB reporter gene, HCC827 +IFNg, 6 h, with HSA” value was 7.22 ng/mL and the “IC50 (ng/ml), activation of NF-kB reporter gene, HCC827 +IFNg, 24 h, with HSA” value was found to be 5.51 ng/mL.
